Test results: patent US20100158922A1 (NOVIMMUNE S A, published 2010)

T1: recombinant human IFNγ (human, UniProt P01579 24-166, limits assumed)
T1 sequence (looked up): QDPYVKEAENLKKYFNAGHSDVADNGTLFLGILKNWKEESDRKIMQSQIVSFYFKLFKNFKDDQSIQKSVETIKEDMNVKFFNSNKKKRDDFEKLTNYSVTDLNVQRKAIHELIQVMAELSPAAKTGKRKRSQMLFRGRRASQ

T2: recombinant cat IFNγ (cat, UniProt P46402 24-167)
T2 construct: also called rcIFNγ
T2 sequence (looked up): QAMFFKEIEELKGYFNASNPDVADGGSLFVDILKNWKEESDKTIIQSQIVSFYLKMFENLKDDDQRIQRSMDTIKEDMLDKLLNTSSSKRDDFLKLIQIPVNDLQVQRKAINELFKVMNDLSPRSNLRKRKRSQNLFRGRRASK

T3: recombinant dog IFNγ (dog, UniProt P42161 24-166)
T3 construct: also called rdIFNγ
T3 sequence (looked up): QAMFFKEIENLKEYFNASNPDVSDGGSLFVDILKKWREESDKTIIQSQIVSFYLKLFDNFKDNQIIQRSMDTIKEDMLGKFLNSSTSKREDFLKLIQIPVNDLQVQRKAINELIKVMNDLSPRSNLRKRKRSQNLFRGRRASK

T4: recombinant cynomolgus IFNγ (cynomolgus monkey, UniProt P63309 24-165)
T4 construct: also called rcyIFNγ
T4 sequence (looked up): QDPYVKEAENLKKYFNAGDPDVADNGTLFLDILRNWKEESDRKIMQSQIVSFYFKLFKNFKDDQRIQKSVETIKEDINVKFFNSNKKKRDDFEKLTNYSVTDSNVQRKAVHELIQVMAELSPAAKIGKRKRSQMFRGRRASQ

T5: native cynomolgus IFNγ (cynomolgus monkey, UniProt P63309 24-165, limits assumed)
T5 construct: Native protein in a culture supernatant; also called ncyIFNγ
T5 sequence (looked up): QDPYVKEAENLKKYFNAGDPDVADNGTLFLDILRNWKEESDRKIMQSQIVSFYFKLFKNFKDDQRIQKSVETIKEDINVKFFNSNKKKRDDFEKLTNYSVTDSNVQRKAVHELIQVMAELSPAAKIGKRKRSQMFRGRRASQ

T6: native human IFNγ (human, UniProt P01579 24-161, limits assumed)
T6 construct: Native protein in a culture supernatant; also called nhuIFNγ
T6 sequence (looked up): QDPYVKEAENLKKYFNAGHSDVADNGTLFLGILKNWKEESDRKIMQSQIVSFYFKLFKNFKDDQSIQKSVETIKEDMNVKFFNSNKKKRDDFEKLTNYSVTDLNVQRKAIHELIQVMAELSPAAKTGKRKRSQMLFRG


How the values were obtained:
recombinant human IFNγ [1] = molecular target: T1, recombinant human IFNγ; assay: cell-based or functional assay
recombinant cat IFNγ = molecular target: T2, recombinant cat IFNγ; assay: Sandwich ELISA, IFNγ captured with pre-coated NI-0501
Description: (§1) The IFNγ from each species was detected using a polyclonal antibody specific for the IFNγ in that assay.

recombinant dog IFNγ = molecular target: T3, recombinant dog IFNγ; assay: as above
Description: as §1

[2] = molecular target: T4, recombinant cynomolgus IFNγ; assay: Binding, cross-reactivity table (Sandwich ELISA)
native cynomolgus IFNγ = molecular target: T5, native cynomolgus IFNγ; assay: Binding, cross-reactivity table (Sandwich ELISA)
native human IFNγ = molecular target: T6, native human IFNγ; assay: Binding, cross-reactivity table (Sandwich ELISA)
recombinant human IFNγ [3] = molecular target: T1, recombinant human IFNγ; assay: Binding, cross-reactivity table (Sandwich ELISA)

Binder | MHC II Inhibition Cell-Based Assay IC50 (recombinant human IFNγ [1]) [nM] | also measured
AC1.2R3P2_A6 IgG (antibody, V domains shown) VH: not shown VL: NFMLTQPHSVSESPGKTVTISCTRSSGSIVSNYVQWYQQRPGSAPTTVIYEDNRRPSGVPDRFSGSIDSSSNTASLTISGLEAEDEADYYCQSYDGSNRWMFGGGTKLTVLG | 0.041 | 
AC1.2R2P2_D8 IgG (antibody, V domains shown) VH: not shown VL: NFMLTQPHSVSESPGKTVTISCTRSSGSIVSNYVQWYQQRPGSSPTTVIYEDNQRPSGVPDRFSGSIDSSSNSASLTISGLKTEDEADYYCQSYDSNNFWVFGGGTKLTVLG | 0.708 | 
AD1.3R3P5_F8 IgG (antibody, V domains shown) VH: not shown VL: NFMLTQPHSVSESPGKTVTISCTRSSGSIASNYVHWYQQRPGSSPTTVIYEDNRRPSGVPARFSGSIDSSSNSASLTISGLETDDEADYYCQSSDTTYHGGVVFGGGTKLTVLG | 1.53 | 
NI-0501 (antibody, V domains shown, It is the back-mutated version of A6; also called A6 back-mutated to germline; back-mutated A6) VH: not shown VL: NFMLTQPHSVSESPGKTVTISCTRSSGSIASNYVQWYQQRPGSSPTTVIYEDNQRPSGVPDRFSGSIDSSSNSASLTISGLKTEDEADYYCQSYDGSNRWMFGGGTKLTVL |  | binding result (recombinant cat IFNγ): no binding; binding result (recombinant dog IFNγ): no binding; binding result [2]: binds; binding result (native cynomolgus IFNγ): binds; binding result (native human IFNγ): binds; binding result (recombinant human IFNγ [3]): binds
AC1.4R4P2_C10 IgG (antibody, V domains shown) VH: not shown VL: NFMLTQPHSVSESPGKTVTISCTRSSGTIASNYVQWYQQRPGSSPTTVIYEDNQRPSGVPDRFSGSIDSSSNSASLTISGLKTEDEADYYCQSYDNSNHWVFGGGTKVTVLG | 0.203 | 

The next lines start with results.

MHC II Inhibition Cell-Based Assay IC50 (recombinant human IFNγ [1]) [nM] | Binder | also measured
0.185 | AD1.3R3P6_F9 IgG (antibody, V domains shown) VH: not shown VL: NFMLTQPHSVSESPGKTVTISCTRSSGSIASNYVQWYQQRPGSAPTIVIYEDNQRPSGVPHRFSGSIDSSSNSASLTISGLKTEDEADYYCQSYEGFGGGTKLTVLG | 
0.233 | AD1.4R4P2_G7 IgG (antibody, V domains shown) VH: not shown VL: NFMLTQPHAVSESPGKTVTISCTGRNGNIASNYVQWYQQRPDSAPTLIIFEDTQRPSGVPTRLSGSIDTSSNSASLIISSLRTEDEADYYCQSSDSNRVLFGGGTKVTVLG | 
0.322 | AD1.4R4P1_B9 IgG (antibody, V domains shown) VH: not shown VL: NFMLTQPHSVSESPGKTVTISCTRSSGSIVSNYVQWYQQRPGSAPTTVIFDDDQRPSGVPGRFSGSLDSSSNSASLTISGLQTEDEADYYCQSYDSSNVVFGGGTKVTVLG | 
